# In US8852587B2 (priority 2008, dated 2014):
# Entries after “also recorded” stand apart in the source; their conditions may differ. Where two headings read alike, the source gives them in different places. Square brackets hold non-standard residues; d marks the D form. Peptide text beside a SMILES is read from it.
# Experiments:
# recombinant mouse PrP [1] = molecular target: T1, recombinant mouse PrP (Mus musculus, UniProt P04925); experiment: biochemical; format: binding
# PrP^C and PrP^Sc = PrP^C and PrP^Sc (Mus musculus, UniProt P04925); format: binding
# ScN2a cells = format: cell-based, murine
# PrP = PrP (Mus musculus, UniProt P04925); parameters: species or system 129 SvEv mice; details: in vivo
# PrP^Sc in ScN2a cells [2] = system: PrP^Sc in ScN2a cells
# recombinant mouse PrP [3] = molecular target: T1, recombinant mouse PrP; format: binding
# Target sequence in this assay (P04925 23-230 limits assumed): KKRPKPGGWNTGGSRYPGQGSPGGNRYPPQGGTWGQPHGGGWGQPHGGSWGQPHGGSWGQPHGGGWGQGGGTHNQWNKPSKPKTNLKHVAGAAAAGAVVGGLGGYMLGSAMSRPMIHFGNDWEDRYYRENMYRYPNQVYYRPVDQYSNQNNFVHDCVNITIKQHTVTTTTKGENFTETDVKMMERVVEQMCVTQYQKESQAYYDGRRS
# scrapie (RML) prions [4] = system: scrapie (RML) prions; parameters: species or system CD1 mice; details: in vivo
# [5] = system: prions in treated ScN2a cells; parameters: species or system tg20 mice; details: mouse, in vivo
# scrapie (RML) prions [6] = system: scrapie (RML) prions; parameters: species or system C57/B6 mice; details: mouse, in vivo, ip
# [7] = system: MBPAc1-11 T cell receptor transgenic CD4+ T cells; format: cell-based, mouse
# PrP^Sc in ScN2a cells [8] = system: PrP^Sc in ScN2a cells; remark: listed apart in the source
# recombinant mouse PrP [9] = molecular target: T1, recombinant mouse PrP
# [10] = molecular target: sheep PrP^C and sheep prions (Ovis aries, UniProt P23907)
# PrP, sequence (P04925 23-230 limits assumed): as above
molecule,measurement,setting,value
"CSCC[C@@H](NC(=O)[C@@H](CC(=O)O)NC(=O)[C@@H](Cc1ccc(O)cc1)NC(=O)[C@@H](Cc1c[nH]c2ccccc12)NC(=O)CN)C(=O)N[C@H](C)C(=O)N[C@H](CC(=O)O)C(=O)N[C@H](CCCNC(=N)N)C(=O)N[C@H](CCC(=O)O)C(=O)N[C@H](Cc1c[nH]c2ccccc12)C(=O)N[C@H](CC(N)=O)C(=O)N[C@H](Cc1c[nH]c2ccccc12)C(=O)N[C@H](CCCNC(=N)N)C(=O)N[C@H](C)C(=O)N[C@H](CS)C(=O)N[C@H](Cc1ccccc1)C(=O)N[C@H](Cc1ccc(O)cc1)C(=O)O [(D-)riCDR3H, gwydmadrewnwracfy] (H-G[dW][dY][dD][dM][dA][dD][dR][dE][dW][dN][dW][dR][dA][dC][dF][dY]-OH)",Kd,recombinant mouse PrP [1],1000 to 10000 nM
same,PrP conformer recognized by immunoprecipitation / pull-down,PrP^C and PrP^Sc,pulled down only PrP^Sc in a conformation-specific manner; also recorded: pulled down only PrP from scrapie-infected homogenates
same,competition of staining by scFvW226,ScN2a cells,could be competed by scFvW226
same,staining pattern of live ScN2a cells,ScN2a cells,staining all over the cell
same,overcoming self tolerance of humoral immune response against PrP,PrP,able to overcome self tolerance of humoral immune response against PrP
same,antiprion activity (prion clearing) of fragments,PrP^Sc in ScN2a cells [2],reinstated antiprion activity
same,concentration at which antiprion activity was exhibited,PrP^Sc in ScN2a cells [2],4 µM
H-YFCARWNWERDAMDYWG-OH [CDR3H],PrP conformer recognized by immunoprecipitation / pull-down,PrP^C and PrP^Sc,conformation-specific recognition of only PrP^Sc; also recorded: pulled down only PrP^Sc in a conformation-specific manner; also recorded: pulled down only PrP from scrapie-infected homogenates
same,binding by enzyme-linked immunosorbent assay,recombinant mouse PrP [3],weak binding to recombinant mouse PrP
same,competition of staining by scFvW226,ScN2a cells,could be competed by scFvW226
same,digestion by trypsin / protease resistance,ScN2a cells,could be digested by trypsin
same,staining pattern of live ScN2a cells,ScN2a cells,stained only intracellular compartments
same,survival of the one surviving immunized mouse,scrapie (RML) prions [4]; ip,> 10 months
same,protection from prion disease,scrapie (RML) prions [4]; mouse,able to protect from prion disease
same,average incubation time of the four immunized mice that died,"scrapie (RML) prions [4]; mouse, ip",205 days
same,clones that only recognized the immunogen,PrP,8
same,hybridoma secreting mABs recognizing both the immunogen and mouse PrP,PrP,28
"scFvW226: scFv: variable heavy and light chain domains of W226 connected by (Gly4Ser)3-linker, C-terminal myc- and his6-tags; SEQ ID NO:6 (protein, C-terminal myc and His6 tags; scFv) scFv: MKYLLPTAAAGLLLLAAQPAMAMAEVQLQQSGAELARPGTSVNLSCKTSGYSFTGYGVSWVKQRIGQGLEWIGEIYPRSGNTYYNEKFKGKATLTADKSSNTAYMELRSLTSEDSAVYFCARWNWERDAMDYWGQGTSVTVSSAKTTPPSDYPLAGGGGSGGGGSGGGGSDIVMTQTPLSLPVSLGDQASISCRSSQSLESSSGYPHLNWYLQKPGQSPQLLIYRVSNRFSGVLDRFSGSGSGTDFTLQISRVEAEDLGVYFCLQITHVPWTFGGGTKLEIKRADAAPTVSAAEEQKLISEEDLEHHHHHH",PrP conformer recognized by immunoprecipitation / pull-down,PrP^C and PrP^Sc,recognizes both PrP^C and PrP^Sc; also recorded: could precipitate both PrP^C and PrP^Sc; also recorded: immunoprecipitated both PrP^C and PrP^Sc
same,number of sick n/n0,[5],0/5
same,survival time,scrapie (RML) prions [6],significant effect on increasing the survival time
same,weight loss,scrapie (RML) prions [6],none of the treated mice experienced any weight loss
same,T cell proliferation,[7],augmented proliferation of Ag-specific T cells; also recorded: increased T cell proliferation
same,antiprion activity,PrP^Sc in ScN2a cells [2],antiprion active
same,concentrations with prion-clearing effects,PrP^Sc in ScN2a cells [2],> 3.2 nM
same,minimal / smallest effective concentration clearing prions,PrP^Sc in ScN2a cells [2],4 nM
same,antiprion effect after transfection into ScN2a cells,PrP^Sc in ScN2a cells [8],clear time-dependent antiprion effect
same,antiprion effect of conditioned medium of transfected N2a cells,PrP^Sc in ScN2a cells [8],prions were cleared
same,binding activity to recombinant mouse PrP after heat incubation,recombinant mouse PrP [9],retained binding activity
same,binding activity to recombinant mouse PrP after serum incubation,recombinant mouse PrP [9],retained binding activity
"mAB W226 (antibody, V domains shown) VH: EVQLQQSGAELARPGTSVNLSCKTSGYSFTGYGVSWVKQRIGQGLEWIGEIYPRSGNTYYNEKFKGKATLTADKSSNTAYMELRSLTSEDSAVYFCARWNWERDAMDYWGQGTSVTVSSAKTTPPSDYPLA VL: DIVMTQTPLSLPVSLGDQASISCRSSQSLESSSGYPHLNWYLQKPGQSPQLLIYRVSNRFSGVLDRFSGSGSGTDFTLQISRVEAEDLGVYFCLQITHVPWTFGGGTKLEIKRADAAPTVSAA",Kd,recombinant mouse PrP [1]; read-out: KD,0.5 nM
same,PrP conformer recognized by immunoprecipitation / pull-down,PrP^C and PrP^Sc,pulls down readily PrP^C from mouse brain homogenates; also recorded: binding to both PrP^C and PrP^Sc was detected
same,survival time,scrapie (RML) prions [6],significant effect on increasing the survival time
same,weight loss,scrapie (RML) prions [6],none of the treated mice experienced any weight loss
same,T cell proliferation,[7],augmented proliferation of Ag-specific T cells; also recorded: increased T cell proliferation
same,binding of PrP^C from normal sheep homogenate,[10],weak binding of PrP^C from normal sheep homogenate
